According to patent US20240100162A1 (published 2024):

Assays:
Assay in all cases: killing
[1] = target: T1, MAGE-B2 peptide, E7I peptide on HLA-A*02:01 (human)
T1 peptide: GVYDGEIHSV

[2] = target: T2, MAGE-B2 peptide, H8C peptide on HLA-A*02:01 (human)
T2 peptide: GVYDGEECSV

[3] = target: T3, MAGE-B2 peptide, E6T peptide on HLA-A*02:01 (human)
T3 peptide: GVYDGTEHSV

[4] = target: T4, MAGE-B2 peptide, H8I peptide on HLA-A*02:01 (human)
T4 peptide: GVYDGEEISV

[5] = target: T5, MAGE-B2 peptide, H8M peptide on HLA-A*02:01 (human)
T5 peptide: GVYDGEEMSV

[6] = target: T6, MAGE-B2 peptide, H8D peptide on HLA-A*02:01 (human)
T6 peptide: GVYDGEEDSV

[7] = target: T7, MAGE-B2 peptide, H8S peptide on HLA-A*02:01 (human)
T7 peptide: GVYDGEESSV

[8] = target: T8, MAGE-B2 peptide, E7A peptide on HLA-A*02:01 (human)
T8 peptide: GVYDGEAHSV

[9] = target: T9, MAGE-A4 peptide on HLA-A*02:01 (human)
T9 peptide: GVYDGREHTV

[10] = target: T10, MAGE-B2 peptide, H8Q peptide on HLA-A*02:01 (human)
T10 peptide: GVYDGEEQSV

[11] = target: T11, MAGE-B2 peptide, Y3W peptide on HLA-A*02:01 (human)
T11 peptide: GVWDGEEHSV

[12] = target: T12, MAGE-B2 peptide, H8T peptide on HLA-A*02:01 (human)
T12 peptide: GVYDGEETSV

[13] = target: T13, MAGE-B2 peptide, E6Q peptide on HLA-A*02:01 (human)
T13 peptide: GVYDGQEHSV

[14] = target: T14, MAGE-B2 peptide, E6S peptide on HLA-A*02:01 (human)
T14 peptide: GVYDGSEHSV

[15] = target: T15, MAGE-B2 peptide, E6C peptide on HLA-A*02:01 (human)
T15 peptide: GVYDGCEHSV

[16] = target: T16, MAGE-B2 peptide, S9R peptide on HLA-A*02:01 (human)
T16 peptide: GVYDGEEHRV

[17] = target: T17, MAGE-B2 peptide, E7S peptide on HLA-A*02:01 (human)
T17 peptide: GVYDGESHSV

[18] = target: T18, MAGE-B2 peptide, S9K peptide on HLA-A*02:01 (human)
T18 peptide: GVYDGEEHKV

[19] = target: T19, MAGE-B2 peptide, H8G peptide on HLA-A*02:01 (human)
T19 peptide: GVYDGEEGSV

[20] = target: T20, MAGE-B2 peptide, S9H peptide on HLA-A*02:01 (human)
T20 peptide: GVYDGEEHHV

[21] = target: T21, MAGE-B2 peptide, H8A peptide on HLA-A*02:01 (human)
T21 peptide: GVYDGEEASV

[22] = target: T22, MAGE-B2 peptide, H8R peptide on HLA-A*02:01 (human)
T22 peptide: GVYDGEERSV

[23] = target: T23, MAGE-B2 peptide, G1A peptide on HLA-A*02:01 (human)
T23 peptide: AVYDGEEHSV

[24] = target: T24, MAGE-B2 peptide, E7F peptide on HLA-A*02:01 (human)
T24 peptide: GVYDGEFHSV

[25] = target: T25, MAGE-B2 peptide, H8E peptide on HLA-A*02:01 (human)
T25 peptide: GVYDGEEESV

[26] = target: T26, MAGE-B2 peptide, S9F peptide on HLA-A*02:01 (human)
T26 peptide: GVYDGEEHFV

[27] = target: T27, MAGE-B2 peptide, S9Y peptide on HLA-A*02:01 (human)
T27 peptide: GVYDGEEHYV

[28] = target: T28, MAGE-B2 peptide, S9L peptide on HLA-A*02:01 (human)
T28 peptide: GVYDGEEHLV

[29] = target: T29, MAGE-B2 peptide, H8V peptide on HLA-A*02:01 (human)
T29 peptide: GVYDGEEVSV

[30] = target: T30, MAGE-B2 peptide, E7T peptide on HLA-A*02:01 (human)
T30 peptide: GVYDGETHSV

[31] = target: T31, MAGE-B2 peptide, E7W peptide on HLA-A*02:01 (human)
T31 peptide: GVYDGEWHSV

[32] = target: T32, MAGE-B2 peptide, H8P peptide on HLA-A*02:01 (human)
T32 peptide: GVYDGEEPSV

[33] = target: T33, MAGE-B2 peptide, H8L peptide on HLA-A*02:01 (human)
T33 peptide: GVYDGEELSV

[34] = target: T34, MAGE-B2 peptide, G5S peptide on HLA-A*02:01 (human)
T34 peptide: GVYDSEEHSV

[35] = target: T35, MAGE-B2 peptide, E6L peptide on HLA-A*02:01 (human)
T35 peptide: GVYDGLEHSV

[36] = target: T36, MAGE-B2 peptide, E7K peptide on HLA-A*02:01 (human)
T36 peptide: GVYDGEKHSV

[37] = target: T37, MAGE-B2 peptide, G1E peptide on HLA-A*02:01 (human)
T37 peptide: EVYDGEEHSV

[38] = target: T38, MAGE-B2 peptide, V10F peptide on HLA-A*02:01 (human)
T38 peptide: GVYDGEEHSF

[39] = target: T39, MAGE-B2 peptide, V10M peptide on HLA-A*02:01 (human)
T39 peptide: GVYDGEEHSM

[40] = target: T40, MAGE-B2 peptide, V10C peptide on HLA-A*02:01 (human)
T40 peptide: GVYDGEEHSC

[41] = target: T41, MAGE-B2 peptide, G1F peptide on HLA-A*02:01 (human)
T41 peptide: FVYDGEEHSV

Measured: binding result

B1: TCR2 (TCR, V domains shown)
Valpha: QKEVEQNSGPLSVPEGAIASLNCTYSDRGSQSFFWYRQYSGKSPELIMSIYSNGDKEDGRFTAQLNKASQYVSLLIRDSQPSDSATYLCAVNIPFSNSGGYQKVTFGTGTKLQVIP
Vbeta: NAGVTQTPKFRVLKTGQSMTLLCAQDMNHEYMYWYRQDPGMGLRLIHYSVGEGTTAKGEVPDGYNVSRLKKQNFLLGLESAAPSQTSVYFCASRHPGQYNQPQHFGDGTRLSIL
no recognition: [9]
not listed: [34] | [35] | [36] | [37] | [38] | [39] | [40] | [41]
recognises: all other assays above

B2: TCR3 (TCR, V domains shown)
Valpha: AQKVTQAQTEISVVEKEDVTLDCVYETRDTTYYLFWYKQPPSGELVFLIRRNSFDEQNEISGRYSWNFQKSTSSFNFTITASQVVDSAVYFCALSVLRMDSSYKLIFGSGTRLLVRP
Vbeta: NAGVTQTPKFRVLKTGQSMTLLCAQDMNHEYMYWYRQDPGMGLRLIHYSVGEGTTAKGEVPDGYNVSRLKKQNFLLGLESAAPSQTSVYFCASSLQGAGQPQHFGDGTRLSIL
not listed: [11] | [23] | [37] | [38] | [39] | [40] | [41]
recognises: all other assays above

B3: TCR1 (TCR, V domains shown)
Valpha: KQEVTQIPAALSVPEGENLVLNCSFTDSAIYNLQWFRQDPGKGLTSLLLIQSSQREQTSGRLNASLDKSSGRSTLYIAASQPGDSATYLCAAMKTSYDKVIFGPGTSLSVIP
Vbeta: GEEVAQTPKHLVRGEGQKAKLYCAPIKGHSYVFWYQQVLKNEFKFLISFQNENVFDETGMPKERFSAKCLPNSPCSLEIQATKLEDSAVYFCASSQGQGGYGYTFGSGTRLTVV
recognises: [34] | [11] | [37] | [36] | [23] | [38] | [39] | [40] | [41]
